Positions count from the first letter of the chain named. One block for each binder: values may come before it.
Assays:
human IL-2Rβ [1] = molecular target: T1, human IL-2Rβ (human, UniProt P14784 27-240, limits assumed); experiment: P.E. ELISA, coated protein
T1 construct: recombinant protein, coated or immobilised; also called hu IL-2R; IL-2R beta
T1 sequence: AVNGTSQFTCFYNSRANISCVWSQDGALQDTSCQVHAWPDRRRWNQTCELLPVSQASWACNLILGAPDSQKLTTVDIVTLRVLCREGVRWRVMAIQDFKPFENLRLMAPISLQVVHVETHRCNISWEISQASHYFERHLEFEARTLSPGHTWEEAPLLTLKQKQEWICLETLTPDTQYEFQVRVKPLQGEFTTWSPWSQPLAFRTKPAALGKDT
Method in brief: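 Direct-coat ELISA: receptor protein o/n 4° C → 4% Marvel/PBS block 1 h → P.E. 1:5 in 1% Marvel/PBS, 1 h → OD450 vs neg. controls.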

human IL-2Rβ [2] = molecular target: T1, human IL-2Rβ; experiment: SPR, P.E. off-rate
Method in brief: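 First, the IL-2R protein is immobilised via amine coupling in acetate buffer to roughly 2500 RU on a CM5 sensor chip. Next, the VHH extract is loaded at 30 uL/min. Finally, dissociation is recorded for 120s.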

human IL-2Rβ [3] = molecular target: T2, human IL-2Rβ (human, UniProt P14784 27-240, limits assumed); experiment: P.E. binding ELISA on coated protein
T2 construct: Recombinant protein, coated (ELISA) or immobilised on CM5 (SPR); also called hu IL-2R; interleukin 2 receptor β-chain
T2 sequence: T1 sequence
Description: In a binding ELISA, human or mouse IL-2Rα, IL-2Rβ and IL-2Rγ proteins were coated directly on maxisorp microtiter plates overnight at 4° C. Free binding sites were blocked using 4% Marvel in PBS for 1 hour. Next, 1:5 dilution of P.E. in 1% Marvel/PBS were added to wells and incubated for 1 hour. […] Binding specificity was determined based on O.D. at 450 nm values compared to negative controls.

human IL-2Rβ [4] = molecular target: T2, human IL-2Rβ; experiment: SPR (Biacore), P.E. off-rate ranking

B2: FJ1427_P035MP02C09 (VHH)
VHH: QVQLQESGGGLVQAGGSLRLSCVASGSVSSINGMAWYRQGADNQRVLVAAISRVGNTAYGDSVKGRFTISRQNARNTVYLQMNSLKPEDTAVYYCNADSWGGDDYWGQGTQVTVSS
notes: soluble VHH in periplasmic extract; also called 17-MP02C09; clone nr
- P.E. binding ELISA OD (human IL-2Rβ [1]): 1.21 OD450 nm
- koff (human IL-2Rβ [2]): 0.000848 s⁻¹

B3: FJ1427_P035MP02A01 (VHH)
VHH: QVQLVESGGGLVQTGGSLRLSCVVSGSHFISDVMGWYRQVPGKQRELVADMADGGSAKYGDSVKGRFTILRDSVKNTVYLQMSSLNPEDTGVYYCKAGLWITGRHSDYWGQGTQVTVSS
notes: soluble VHH in periplasmic extract; also called clone nr; 97
- P.E. binding ELISA OD (human IL-2Rβ [1]): 0.311 OD450 nm
- koff (human IL-2Rβ [2]): 0.00023 s⁻¹

B4: FJ1427_P035MP02G01 (VHH)
VHH: B3 VHH with V23A, H28R, G60A, T68S, V74A, N86K, V92I, T102A
notes: soluble VHH in periplasmic extract; also called clone nr
- P.E. binding ELISA OD (human IL-2Rβ [1]): 0.169 OD450 nm
- koff (human IL-2Rβ [2]): 0.000368 s⁻¹

B5: FJ1427 P035MP02G02 (VHH)
VHH: B3 VHH with T14P, V23A, V24A, A57V, Y79T, S106F, T113I, S118T
notes: as for B4
- P.E. binding ELISA OD (human IL-2Rβ [1]): 0.177 OD450 nm
- koff (human IL-2Rβ [2]): 0.000112 s⁻¹

B6: FJ1427_P035MP02B02 (VHH)
VHH: B3 VHH with Q1E, G10T, L70V, T102K, S118T
notes: as for B4
- P.E. binding ELISA OD (human IL-2Rβ [1]): 0.343 OD450 nm
- koff (human IL-2Rβ [2]): 0.000164 s⁻¹

B7: FJ1427 P035MP02D02 (VHH)
VHH: QVQLVESGGGLVQVGGSLSVSCAASGRSFDSITMAYFRQAPGNEREFIAGINFSGSRTAYGDSVKGRFTISRDNAKNTVFLQMNSLNPEDTAVYYCAASPRGFYGPGHALYDYWGQGTQVTVSS
notes: as for B4
- P.E. binding ELISA OD (human IL-2Rβ [1]): 0.831 OD450 nm
- koff (human IL-2Rβ [2]): 0.000529 s⁻¹

B10: FJ1427_P035MP02E12 (VHH)
VHH: QVQLQESGGGLVQAGGSMRLSCAASGRTFSNYVIAWFRQAPGKEREFVGAITQTGRGTFYASSVEGRFTLSRLNDQSTVYLQMNSLNPEDTGVYYCSAPRSGRAGTRNQMDYEYWGQGTQVTVSS
notes: as for B4
- P.E. binding ELISA OD (human IL-2Rβ [3]): 0.108 OD450 nm
- koff (human IL-2Rβ [4]): 0.0115 s⁻¹

B11: FJ1427_P035MP02C12 (VHH)
VHH: EVQLVESGGGSVQAGGSLRLSCAASGRTFSDYTMGWFRQAPGKEREFVVAITGTGHTTDMPDSVEGRFTISRDNAKNTIYLDMKNLKPGDTAVYYCASARGLPVTPLGDIIYWGEGTLVTVSS
notes: as for B4
- P.E. binding ELISA OD (human IL-2Rβ [3]): 0.616 OD450 nm
- koff (human IL-2Rβ [4]): 0.00106 s⁻¹

B12: FJ1427 P035MP02B12 (VHH)
VHH: QVQLVESGGGLVQAGGSLRLSCAASGRADSNAIMAWFRQAPGKEREFIVAVTYSGMPTYQDDSVQGRFTASRDNAKNTVYLQMNSLKPEDTAVYYCAARMYSASTYYGDYDYWGQGTQVTVSS
notes: as for B4
- P.E. binding ELISA OD (human IL-2Rβ [3]): 1.25 OD450 nm
- koff (human IL-2Rβ [4]): 0.000716 s⁻¹

B13: FJ1427 P035MP02F12 (VHH)
VHH: QLQLVESGGGLVQTGTSLRLSCAASGHTSRINAMGWFRQFPGKEREFVAAISRNGGSTVYVDSVKGRFTISRDNAKSTVYLQMNSLKPEDTAVYYCTATDAVGWTTRWMTADFGFWGQGTQVTVSS
notes: soluble VHH in periplasmic extract; also called clone nr; 190
- P.E. binding ELISA OD (human IL-2Rβ [3]): 0.628 OD450 nm
- koff (human IL-2Rβ [4]): 0.00294 s⁻¹

B14: FJ1427 P035MP02A12 (VHH)
VHH: QVQLQESGGGLVQAGGSLRLSCAVSGRSFRNYVMGWFRQAPGREREIVAGITQFTSTTYYDDSVKGRFTISRDNAKNTVYLQMNSLKPEDTALYYCAADRSIKMTADWAYWGQGTQVTVSS
notes: as for B4
- P.E. binding ELISA OD (human IL-2Rβ [3]): 0.182 OD450 nm
- koff (human IL-2Rβ [4]): 0.00451 s⁻¹

B15: FJ1427 P035MP03C10 (VHH)
VHH: QVQLVESGGGLVQAGGSLRLSCAASGRTFSTTEMGWFRQAPGKEREFVAAITWTGRGTMYAESVEGRFTISRENAKNMVYLQMNSLKPEDTAIYYCAAARRGRAAVRSEGGYDFWGQGTQVTVSS
notes: as for B4
- P.E. binding ELISA OD (human IL-2Rβ [3]): 0.596 OD450 nm
- koff (human IL-2Rβ [4]): 0.000439 s⁻¹

B17: FJ1427_P035MP02F11 (VHH)
VHH: EVQLVESGGGLVQAGGSLRLSCAASGRDFSSYAMGWFRQAPGKEREFVVAITWTKRSTDFPDSVKGRFTISRDNAKNTVYLDMNSLKPEDTAVYYCASARGLPVTPLGDIIYWGEGTLVTVSS
notes: as for B4
- P.E. binding ELISA OD (human IL-2Rβ [3]): 0.33 OD450 nm
- koff (human IL-2Rβ [4]): 0.000686 s⁻¹

B20: FJ1427 P035MP03F07 (VHH)
VHH: B17 VHH with E1Q, D28T, A33V, W53G, K55R, S57T, F60W, K76Q, T105P, Y112H
notes: as for B4
- P.E. binding ELISA OD (human IL-2Rβ [3]): 0.156 OD450 nm
- koff (human IL-2Rβ [4]): 0.00126 s⁻¹

B21: FJ1427 P035MP06E05 (VHH)
VHH: QVQLVESGGELVQGGASLRLSCAASGRTFSNANMAWFRQAPEKEREFVALITWSSGSTLYADSVKGRFTISRDNARKMVYLQMNSLKPEDTAVYYCAADGPPYSGTYYRYDTYDYWGQGTQVTVSS
notes: soluble VHH in periplasmic extract; also called 24-MP06E05; clone nr; 517
- P.E. binding ELISA OD (human IL-2Rβ [1]): 0.355 OD450 nm
- koff (human IL-2Rβ [2]): 0.000471 s⁻¹

B24: FJ1427_P035MP02D12 (VHH)
VHH: QVQLVESGGGLVQAGGSLTLSCAASGGAFSSDAKAWFRQAPGKEREFVAAITWAGRGTDYADSVKGRFTITRDNAKATVHLQMNSLKPEDTAVYYCALNPRGVIGPAFRNSNHYTYWGQGTQVTVSS
notes: as for B4
- P.E. binding ELISA OD (human IL-2Rβ [3]): 0.658 OD450 nm
- koff (human IL-2Rβ [4]): 0.00144 s⁻¹

More lines, now with the values ahead:

- P.E. binding ELISA OD (human IL-2Rβ [1]): 0.245 OD450 nm
- koff (human IL-2Rβ [2]): 0.000296 s⁻¹
B1: FJ1427_P035MP03F08 (VHH)
VHH: EVQLVESGGGLVQTGGSLRLSCAASGGTFSRDAMAWFRQVPGKEREFVALISWSGATTNYADSVKGRFAISRDNGKNTVYLQMNRLKPADTAIYYCAADRRPMGSRSYFEPTEYDDWGQGTQVTVSS
notes: soluble VHH in periplasmic extract; also called 19-MP03F08; clone nr

- P.E. binding ELISA OD (human IL-2Rβ [1]): 0.159 OD450 nm
- koff (human IL-2Rβ [2]): 0.000836 s⁻¹
B8: FJ1427_P035MP06F05 (VHH)
VHH: QVQLVESGGGLVQTGDSLRLSCAASGRSLDTTYIAWFRQAPGKERDFLAYISPRFSHTWYADSVKGRFTISRNIAKRTVDLEMNSLEPEDTAVYYCAAREHSGSTAWEHYDHWGQGTQVTVSS
notes: soluble VHH in periplasmic extract; also called 25-MP06F05; clone nr

- P.E. binding ELISA OD (human IL-2Rβ [1]): 0.405 OD450 nm
- koff (human IL-2Rβ [2]): 0.000594 s⁻¹
B9: FJ1427_P035MP03C03 (VHH)
VHH: QVQLVESGGGLVQPGGSLRLSCAISGGTLDSYGIGWVRQAPGKQREGVSCMSRSDDRTYYADSVKGRFTISKDSAKNTVYLQMTSLKPEDTAVYYCAAVDAYGCSLVQPTTYDFWGLGTQVTVSS
notes: soluble VHH in periplasmic extract; also called 18-MP03C03; clone nr

- P.E. binding ELISA OD (human IL-2Rβ [3]): 0.795 OD450 nm
- koff (human IL-2Rβ [4]): 0.000773 s⁻¹
B16: FJ1427_P035MP02H11 (VHH)
VHH: B15 VHH with Q1E, T122A
notes: as for B4

- P.E. binding ELISA OD (human IL-2Rβ [1]): 0.497 OD450 nm
- koff (human IL-2Rβ [2]): 0.000595 s⁻¹
B18: FJ1427_P035MP03F10 (VHH)
VHH: B17 VHH
notes: soluble VHH in periplasmic extract; also called 20-MP03F10; clone nr; 270

- P.E. binding ELISA OD (human IL-2Rβ [3]): 0.429 OD450 nm
- koff (human IL-2Rβ [4]): 0.000708 s⁻¹
B19: FJ1427_P035MP02G11 (VHH)
VHH: B17 VHH with E1Q, V2L
notes: as for B4

- P.E. binding ELISA OD (human IL-2Rβ [1]): 0.781 OD450 nm
- koff (human IL-2Rβ [2]): 0.000419 s⁻¹
B22: FJ1427_P035MP03F12 (VHH)
VHH: EVQLVESGGGLVQAGGSLRLSCAASGSIFSINAMAWFRQVPGMERELVAAISRDGGASVYRDSVKGRFTISRDNSKNTVYLQMNTLKPEDTAIYVCAATRAIGWTARWITTDFDFWGQGTQVTVSS
notes: soluble VHH in periplasmic extract; also called 22-MP03F12; clone nr

- P.E. binding ELISA OD (human IL-2Rβ [1]): 0.487 OD450 nm
- koff (human IL-2Rβ [2]): 0.00106 s⁻¹
B23: FJ1427_P035MP02H01 (VHH)
VHH: QVQLVESGGGLVQPGGSLGLSCAASGFTFDNYAMSWVRQAPGKGLEWVSSITGAGRGTHYADSVKGRFTISRDNAKNTLYLQMNSLKPEDTAVYYCAKYSSSTYYPPTPARGTDYRGPGTQVTVSS
notes: as for B4

— patent US20240409645A1 (DUALYX, published 2024)
